The values that follow come from article PMC10558804.

Holding throughout (test): native gel or EMSA; blue native-PAGE (BN-PAGE) of membrane proteins extracted from whole-cell lysates of transfected HEK 293 cells, 10 mM n-dodecyl-β-maltoside, 4 to 16% (or 3 to 12%) Bis/Tris gels, Western blot with anti-GluA1 or anti-GluA2; AMPAR subunit expressed alone or with an auxiliary subunit (cDNA 1:1); oligomeric states (tetramer, dimer, monomer) by molecular mass; tetramer fraction from band intensities; association of an auxiliary subunit read from the upshift of the tetramer band

In test [1] the target is GluA2(R)(G823A) (rat (Rattus norvegicus)).
Test [2] concerns the target GluA1 (rat, flip splice variant), wild type (rat (Rattus norvegicus)).
For test [3], the target named is GluA2(R) (rat, flip splice variant, edited (R) form) (rat (Rattus norvegicus)).
In test [4] the target is GluA1(G816A)-TARP γ-2 tandem (rat (Rattus norvegicus) | rat).
For test [5], the target named is GluA1-ΔECD (GluA1 lacking the extracellular ATD and LBD) (rat (Rattus norvegicus)).
Test [6] has as its target GluA1-TARP γ-2 tandem (rat (Rattus norvegicus) | rat).
In test [7] the target is GluA1(G816A) (rat (Rattus norvegicus)).

With GluA2(R)(G823A) (receptor), the tetramer fraction in test [1] stood at 0.45.
With “GluA1 (rat, flip splice variant), wild type (receptor)”, in test [2], the stoichiometry N came to 4 and the tetramer fraction worked out at 0.84.
With “GluA2(R) (rat, flip splice variant, edited (R) form) (receptor)”, in test [3], the stoichiometry N turned out to be 4 and the tetramer fraction turned out to be 0.89.
Regarding GluA1(G816A)-TARP γ-2 tandem, in test [4], the stoichiometry N turned out to be 4.
With “GluA1-ΔECD (GluA1 lacking the extracellular ATD and LBD) (domain or fragment)”, the stoichiometry N in test [5] stood at 4.
With GluA1-TARP γ-2 tandem, in test [6], the stoichiometry N came to 4.
Regarding GluA1(G816A) (receptor), the tetramer fraction in test [7] stood at 0.52.
